The record followed here is patent publication US20130034559A1 (AstraZeneca / MedImmune, published 2013).

For test [1], the target named is T1, cynomolgus monkey B7-H1 expressed on cells (cynomolgus monkey, UniProt G7PSE7 19-290).
T1 construct: whole, on cells; also called cyno B7-H1; cynomologus B7-H1
In words: FACS, 1 µg/ml antibody, anti-CD3-activated cynomolgus monkey T cells. On the procedure: For activation of cynomolgus monkey T cells 96-well high binding plates were incubated with 100 μl/well of goat anti-mouse IgG Fc antibody diluted at 1 ug/ml in PBS at 4 C overnight. […] Cynomolgus monkey PBMC were isolated from peripheral blood (Bioreclamation, catalog #CYNWBCPT). Anti-CD3 mAb coated plates were washed with PBS and isolated PBMC were added in 200 ul of ICM media at ˜200000 cells/well and cultured for 72 hours. Cells were then harvested, washed in FACS buffer and mixed with diluted purified anti-B7-H1 antibodies or irrelevant human IgG2 or IgG4 antibodies at a final concentration of 1 ug/ml in 96-well V-bottom assay plate (50 ul/well). […] Cells were incubated for 1 hour at 4° C. before being washed again with FACS buffer and being read on a FACSCalibur instrument. Monkey T lymphocyte population was selected for analysis based on forward and side scatter as well as positive staining for CD3 marker and negative staining for 7-AAD.
For orientation: A flow cytometer gives signals particle by particle.

In test [2] the target is T2, human B7-H1 expressed on cells (human, UniProt Q9NZQ7 19-290).
T2 construct: whole, on cells; also called PD-L1; huB7-H1
In words: cell ELISA: biotinylated PD-1/Fc (1.25 ug/ml) on CHO-huB7-H1 cells after hybridoma supernatant (1:5); 0% = 100% inhibition. As for the experimental part:
25000 cells/well were plated in 50 μl of media into wells of a 384-well tissue culture plate (Corning Costar, catalog #3712). Next day, 50 μl/well of diluted (1:5) hybridoma supernatant was added and plates were incubated at 4 C for 1 hour on a shaker. […] Cells were washed and fixed in 100 ul of PBS containing 3.7% formaldehyde and 3% bovine serum albumin for 20 min at room temperature. Cells were washed and incubated in 100 ul of PBS containing 0.6% H2O2 and 3% bovine serum albumin for 10 min at room temperature. Cells were washed and incubated in 50 μl of horseradish peroxidase-conjugated streptavidin diluted at 1:4000 for 30 min at 4° C. Cells were washed before signal detection.
For orientation: An ELISA detects its analyte on a solid surface through an enzyme-linked reagent.

Test [3] deals with T3, mouse B7-H1 on J558 cells (mouse, UniProt Q9EP73 19-290).
T3 construct: whole, on cells
In words: FACS, 5 µg/ml antibody, J558 cells expressing mouse B7-H1. On the procedure: (§1) The ability of the purified antibodies to bind to human B7-H1, B7-DC, mouse B7H1 and cynomolgus monkey B7-H1 was determined by FACS analysis. […] Mouse J558 cells expressing mouse B7-H1 were obtained from ATCC (catalog #TIB-6). Cells were resuspended in PBS containing 2% FBS (FACS buffer) and seeded at 50000 cells/well into V-bottomed plates. Anti-B7-H1 and isotype control antibodies diluted in FACS buffer were added at a final concentration of 5 μg/ml and plates were incubated for 1 h at 4° C. […] Mouse anti-human B7-DC (PD-L2) antibody (R&D systems cat #MAB1224, detected with goat anti-mouse Fc Cy5, Jackson Immunoresearch) was used as a positive control for B7-DC expression. PE-conjugated rat anti-mouse B7-H1 antibody (eBioscience, clone M1H5, detected with goat anti-rat Fc Cy5, Jackson Immunoresearch) was used as a positive control for mouse B7-H1 expression.

Test [4] concerns the target T1, cynomolgus monkey B7-H1 expressed on …. Put plainly: FMAT, hybridoma supernatant, 293T cells expressing cynomolgus monkey B7-H1. On the procedure: (§2) Immediately after plating, 10 μl/well of hybridoma supernatants were added and plates incubated for 1.5 hr at room temperature.
Test [5] concerns the target T4, human B7-DC on 293T cells (human, UniProt Q9BQ51 20-273).
T4 construct: whole, on cells; also called PD-L2
T4 sequence (looked up): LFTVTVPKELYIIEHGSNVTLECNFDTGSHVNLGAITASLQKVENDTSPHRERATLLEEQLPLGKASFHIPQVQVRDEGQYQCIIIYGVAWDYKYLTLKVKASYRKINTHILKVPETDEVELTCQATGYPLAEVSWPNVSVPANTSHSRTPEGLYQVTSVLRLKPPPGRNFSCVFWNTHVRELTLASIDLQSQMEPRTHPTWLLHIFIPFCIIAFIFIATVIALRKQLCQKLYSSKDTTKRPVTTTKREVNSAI
Put plainly: FACS, 5 µg/ml antibody, 293T cells transfected with human B7-DC. As for the experimental part: as §1

Test [6] has as its target T3, mouse B7-H1 on J558 cells. Put plainly: FACS on J558 cells expressing mouse B7-H1. As for the experimental part:
as §1

The target of test [7] is T2, human B7-H1 expressed on cells. In words: FACS competition: inhibition of biotinylated PD-1/Fc (10 ug/ml) binding to human B7-H1 on ES-2 cells. As for the experimental part:
Briefly, 50000 cells/well were plated in 50 μl of PBS into wells of a 384-well tissue culture plate (Corning Costar, catalog #3712). Next, 50 μl/well of a diluted monoclonal antibody was added at final concentration of […], 0.00016 nM and plates were incubated at 4 C for 1 hour. […] Cells were washed once and 100 μl/well of Cy5-conjugated streptavidin was added and plates were incubated at 4 C for 15 min before being washed again with PBS containing 2% FCS and being read on a FACSCalibur instrument.

For test [8] the target is unchanged. Put plainly: FACS, 1 µg/ml antibody, anti-CD3-activated human T cells. As for the experimental part: 96-well high binding plates were incubated with 100 μl/well of anti-CD3 antibody diluted at 1 ug/ml in PBS (OKT3 clone, eBioscience, catalog #160037) at 4 C overnight. Human T cells were isolated from frozen leukopack using T cell enrichment kit (StemCell Technologies, catalog #19051). Anti-CD3 mAb coated plates were washed with PBS and purified T cells were added in 200 ul of ICM media at 360000 cells/well and cultured for 72 hours. T cells were then harvested, washed in FACS buffer and mixed with diluted purified anti-B7-H1 antibodies or irrelevant human IgG2 or IgG4 antibodies at final concentration of 1 ug/ml in 96-well V-bottom assay plate (50 ul/well). […] Cells were incubated for 30 min at 4° C. before being washed again with FACS buffer and being read on a FACSCalibur instrument. Live lymphocyte population was selected for analysis based on forward and side scatter as well as negative staining for 7-AAD.

In test [9] the target is T4, human B7-DC on 293T cells. Put plainly: FACS on 293T cells transfected with human B7-DC. On the procedure: as §1
The target in test [10] is T2, human B7-H1 expressed on cells. In words: FMAT, hybridoma supernatant, 293T cells expressing human B7-H1. As for the experimental part: as §2
Test [11] shares this target. Put plainly: FACS, 5 µg/ml antibody, 293T cells transfected with human B7-H1. As for the experimental part:
as §1

T2 sequence (Q9NZQ7 19-290): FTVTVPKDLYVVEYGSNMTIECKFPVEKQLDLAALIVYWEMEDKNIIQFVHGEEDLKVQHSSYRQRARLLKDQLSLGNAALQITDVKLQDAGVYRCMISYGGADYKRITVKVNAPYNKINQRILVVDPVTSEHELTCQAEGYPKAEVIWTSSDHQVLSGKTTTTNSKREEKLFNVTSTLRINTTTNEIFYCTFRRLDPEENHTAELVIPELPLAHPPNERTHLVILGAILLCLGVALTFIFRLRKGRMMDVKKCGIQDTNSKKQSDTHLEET
T3 sequence (Q9EP73 19-290): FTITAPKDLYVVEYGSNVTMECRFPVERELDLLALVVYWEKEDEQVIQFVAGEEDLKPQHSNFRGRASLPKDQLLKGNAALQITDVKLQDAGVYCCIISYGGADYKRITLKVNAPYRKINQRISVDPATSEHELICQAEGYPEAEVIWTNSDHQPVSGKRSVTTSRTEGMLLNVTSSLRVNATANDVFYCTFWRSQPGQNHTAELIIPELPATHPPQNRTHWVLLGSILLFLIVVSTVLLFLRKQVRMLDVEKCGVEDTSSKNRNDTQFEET
T1 sequence (G7PSE7 entry or part of it): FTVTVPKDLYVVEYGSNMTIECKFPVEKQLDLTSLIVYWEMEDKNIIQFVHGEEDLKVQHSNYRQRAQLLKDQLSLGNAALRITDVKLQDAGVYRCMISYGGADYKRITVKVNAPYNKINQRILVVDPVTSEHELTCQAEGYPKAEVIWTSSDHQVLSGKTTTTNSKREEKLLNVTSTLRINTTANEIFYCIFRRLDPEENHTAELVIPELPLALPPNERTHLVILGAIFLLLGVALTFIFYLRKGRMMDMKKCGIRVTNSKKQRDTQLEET

B1: 2.9D10 (antibody, V domains shown)
VH: EVQLVESGGGLVQPGGSLRLSCAASGFTFSSYWMSWVRQAPGKGLEWVANIKQDGGEQYYVDSVKGRFTISRDNAKNSLYLQMNSLRAEDTAVYYCARDWNYGYYDMDVWGQGTTVTVSS
VL: EIVLTQSPGTLSLSPGERATLSCRASQSVSSNYLAWFQQKPGQAPRLLIFGTSSRATGIPDRFSGSGSGTDFTLTISRLEPEDFAVYYCQQYGSSIFTFGPGTKVDIK
notes: Tested as hybridoma supernatant or purified antibody; also called mAb 2.9D10
B1: the geo mean in [1] amounted to 107; in test [3], 3.2; in test [5], 8.7; in [8], 49; in test [11] it was 463. In addition, the “PD1-Fc binding to CHO-huB7-H1 cells (% of max)” value (“PD1-Fc binding … (% of max)” below) in test [2] is -5 % of max. Also, the results for the Count in test [4] and in [10] were 54 and 22, respectively. The figures for the FL1 in [4] and in [10] were 5530 and 7180, respectively. Besides, the “FL1 × count” value amounted to 298000 in [4] and 158000 in [10]. In addition, the binding result in [6] and in test [9] was “no binding (tested: 5 µg/ml)” throughout. The half-maximal inhibitory concentration (IC50) – broadly, the concentration that gives 50% inhibition – in test [7] came out at 0.109 nM.

B2: 2.14H9 (antibody, IgG2, V domains shown)
VH: EVQLVESGGGLVQPGGSLRLSCAASGFTFSRYWMSWVRQAPGKGLEWVANIKQDGSEKYYVDSVKGRFTISRDNAKNSLYLQMNSLRAEDTAVYYCAREGGWFGELAFDYWGQGTLVTVSS
VL: EIVLTQSPGTLSLSPGERATLSCRASQRVSSSYLAWYQQKPGQAPRLLIYDASSRATGIPDRFSGSGSGTDFTLTISRLEPEDFAVYYCQQYGSLPWTFGQGTEVEIK
notes: also called mAb 2.14H9
Take B2: the geo mean in [1] was found to be 106; in test [3] it was 3; in test [5], 11.4. The molecule also came in with a Count in test [4] of 56. This molecule came in with an FL1 in test [4] of 6780. The “FL1 × count” value in test [4] was found to be 380000. In addition, the binding result in [6] and in test [9] was “no binding (tested: 5 µg/ml)” each time.

B3: 3.15G8 (antibody, IgG4, V domains shown)
VH: EVQLVESGGGLVQPGGSLRLSCAASGFTFSSYWMSWVRQAPGKGLEWVANIKQDGGEKYYVDSVKGRFTISRDNAKNSLFLQMNSLRAEDTAVYYCARVQLYSDYFDYWGQGTLVTVSS
VL: DIQMTQSPSSVSASVGDRVTITCRASQGISSWLAWYQQKSGKAPKLLIYAASGLQSGVPSRFSGSGSGTDFTLTISSLQPEDLATYYCQQSHSLPPTFGQGTKVEIK
notes: also called mAb 3.15G8
B3: the geo mean came out at 92.8 in test [1]; 3.2 in test [3]; 10.1 in test [5]; 48 in test [8]; 1180 in [11]. In addition, the “PD1-Fc binding … (% of max)” value in test [2] was 4 % of max. The Count in test [4] was 64; in [10], 22. For the same molecule, the FL1 in test [4] was 8650; in test [10] it was 8810. Also, the figures for the “FL1 × count” value in [4] and in [10] were 553000 and 194000, respectively. For the same molecule, the binding result in test [6] and in test [9] was “no binding (tested: 5 µg/ml)” in each case. In test [7], the IC50 was 0.148 nM.

B4: 2.20A8 (antibody, IgG2, V domains shown)
VH: EVQLLESGGGLVQPGGSLRLSCAASGFTFSNYAMSWVRQAPGKGLEWVSAIRGSGGSTYYADSVKGRFTISRDNSKNTLYLQMNSLRAEDTAVYYCAKDLHYDSSGYLDYWGQGTLVTVSS
VL: DIQMTQSPSSVSASVGDRVTITCRASQGIRSWLAWYQQKPGKAPKLLIYAISRLQSGVPSRFSGSGSGTDFTLTISSLQPEDFATYYCQQANSFPLTFGGGTKVEIK
notes: also called mAb 2.20A8
On to B4, for which the geo mean in [1] was 80.7; in [3], 3.3; in [5], 9.5; in test [8], 41; in test [11], 463. Also, the “PD1-Fc binding … (% of max)” value in test [2] was 0 % of max. In addition, the Count in test [4] is 65; in [10], 34. Moreover, the values for the FL1 in [4] and in test [10] were 7930 and 10300, respectively. Also, the figures for the “FL1 × count” value in [4] and in test [10] were 515000 and 350000, respectively. Also, the binding result in test [6] and in test [9] was “no binding (tested: 5 µg/ml)” throughout. Further, the half-inhibitory concentration (IC50) in test [7] came to 0.198 nM.

B5: 2.7A4 (antibody, IgG2, V domains shown)
VH: EVQLVESGGGLVKPGGSLRLSCAASGFTFSTYSMNWVRQAPGKGLEWVSSISSSGDYIYYADSVKGRFTISRDNAKNSLFLQMNSLKAEDTAVYYCARDLVTSMVAFDYWGQGTLVTVSS
VL: SYELTQPPSVSVSPGQAARITCSGDALPQKYVFWYQQKSGQAPVLVIYEDSKRPSGIPERFSGSSSGTMATLTISGAQVEDEADYYCYSTDRSGNHRVFGGGTRLTVL
notes: also called mAb 2.7A4
For the molecule B5, the geo mean turned out to be 104 in [1]; 3.2 in [3]; 10.5 in test [5]; 49 in test [8]; 754 in test [11]. Also, the “PD1-Fc binding … (% of max)” value in [2] is 0 % of max. In addition, the figures for the Count in [4] and in test [10] were 59 and 37, respectively. Besides, the FL1 was 8700 in [4] and 6980 in test [10]. For the same molecule, the “FL1 × count” value in test [4] was 513000; in test [10] it was 258000. Besides, the binding result in [6] and in [9] was “no binding (tested: 5 µg/ml)” throughout. Further, the IC50 in test [7] amounted to 0.077 nM.
